Source: US20140057253, “METHOD TO PREDICT THE PATTERN OF LOCOMOTION IN HORSES” (CAPILET GENETICS AB, published 2014)

Legend:
[1] = biological target: DMRT3 Ser301STOP mutant (truncated, 300 aa) (Equus caballus, UniProt J7FCF0 SEQ:1-300); experiment: EMSA; 150x cold competitor used; on ice 20 min then room temperature 30 min; truncation retains DNA binding; conditions: tags: myc; label: 32P (Klenow fill-in with alpha-32P-dCTP)
Experimental: (§1) The oligonucleotide 5′-ggatcc[…]-3′ and its complementary sequence were annealed in 10 mM Tris pH 7.5, 1 mM EDTA, 50 mM KCl by firstly heating to 95° C. for 2 min and thereafter cooled to 25° C. (2 min/degree). The duplex was labelled with Klenow DNA polymerase and [α-32P]-dCTP and purified using a Bio-Rad Micro Bio-Spin 30 column. DMRT3 wild type and mutant protein were produced by in vitro-translation using a TNT Quick Coupled Transcription/Translation System (Promega). EMSA was performed as described by Culbertson & Leeds, 2003 (Looking at mRNA decay pathways through the window of molecular evolution. Curr. Opin. Genet. Dev. 13, 207-214) with the following modifications. No plasmid DNA was added and 1.0 μl in vitro-translated protein and 150× cold competitor were used. The reaction mixture was incubated on ice for 20 min before adding the radioactive oligo and thereafter incubated at room temperature for 30 min. Gels were run at 150 V in room temperature. […] It may therefore be a dominant negative form with normal DNA-binding but defective interaction with other proteins. This would be consistent with the clear phenotypic effects observed in heterozygotes. However, the mutation is not fully dominant as CA heterozygotes and AA homozygotes show distinct phenotypic differences.

[2] = biological target: DMRT3 wild-type (Equus caballus, UniProt F6W2R2 SEQ:1-474); experiment: EMSA; 150x cold competitor used; on ice 20 min then room temperature 30 min; conditions: tags: myc; label: 32P (Klenow fill-in with alpha-32P-dCTP)
Chain of DMRT3 wild-type (F6W2R2 whole entry A151D): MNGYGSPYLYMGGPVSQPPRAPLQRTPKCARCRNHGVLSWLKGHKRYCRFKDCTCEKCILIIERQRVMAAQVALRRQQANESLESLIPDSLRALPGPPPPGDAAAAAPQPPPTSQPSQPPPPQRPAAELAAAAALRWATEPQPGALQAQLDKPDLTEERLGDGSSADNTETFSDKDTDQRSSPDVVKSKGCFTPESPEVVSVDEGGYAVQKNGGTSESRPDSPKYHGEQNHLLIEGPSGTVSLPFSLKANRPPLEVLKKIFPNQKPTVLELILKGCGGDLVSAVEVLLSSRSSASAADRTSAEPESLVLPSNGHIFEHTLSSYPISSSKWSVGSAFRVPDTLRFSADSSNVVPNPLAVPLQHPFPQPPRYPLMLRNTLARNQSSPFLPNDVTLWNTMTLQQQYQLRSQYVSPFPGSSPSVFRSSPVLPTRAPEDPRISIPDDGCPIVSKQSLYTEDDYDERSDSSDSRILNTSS
Experimental: as §1

Chain of DMRT3 Ser301STOP mutant (truncated, 300 aa) (J7FCF0 other isoform, or with tags, fused parts or gaps mutant): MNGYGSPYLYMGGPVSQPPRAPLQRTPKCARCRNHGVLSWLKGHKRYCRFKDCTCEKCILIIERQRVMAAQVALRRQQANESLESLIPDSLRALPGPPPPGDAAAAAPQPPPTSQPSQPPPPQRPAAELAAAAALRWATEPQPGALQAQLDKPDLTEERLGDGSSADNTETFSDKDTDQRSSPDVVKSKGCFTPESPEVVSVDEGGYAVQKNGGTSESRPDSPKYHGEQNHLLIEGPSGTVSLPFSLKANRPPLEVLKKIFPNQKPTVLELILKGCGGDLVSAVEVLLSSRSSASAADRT

B1: DMRT-binding motif oligonucleotide (dsDNA)
DNA 1: GGATCCTCGAGAACAATGTAACAATTTCGCCC
DNA 2: GGGCGAAATTGTTACATTGTTCTCGAGGATCC
[1]
  binding result: binds
[2]
  binding result: binds
